Here are results for two sequences from article PMC7252695.

Series [1] concerns the target T1, GST-TEK (Arabidopsis thaliana) (UniProt Q9SJG4).
T1 sequence: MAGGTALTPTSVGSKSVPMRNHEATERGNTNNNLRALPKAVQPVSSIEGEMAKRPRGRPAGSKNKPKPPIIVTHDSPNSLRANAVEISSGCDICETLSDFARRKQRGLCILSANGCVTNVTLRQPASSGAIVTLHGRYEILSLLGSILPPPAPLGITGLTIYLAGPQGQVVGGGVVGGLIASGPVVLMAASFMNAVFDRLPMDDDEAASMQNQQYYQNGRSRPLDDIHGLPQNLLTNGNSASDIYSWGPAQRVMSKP
In words: EMSA. Particulars: EMSA according to manufacturer's instructions (Thermo Scientific); buffer, salt, pH and temperature not stated. A general note: Mobility shift assays separate free from complexed probe on a gel.

For series [2], the target named is T1, GST-TEK (Arabidopsis thaliana). In words: competition. The following applies: EMSA according to manufacturer's instructions (Thermo Scientific); buffer, salt, pH and temperature not stated.

Take “GCCCATATATAGTATCTTCCGCTGTTGTATATCTTGAGCAGCTTGAGGAAGCCTTTGCAAAAAAATAGAGTGAATTTTGAGTACAGTATGAATATCATTCAACAACATTTTCCATCCAAGCGACTTAGAAAATAAAATTTTGTCAGCTACCTTAAACTGTGTTTACGTCCTAAAAATTTGCACCAA (double strand) [CalS5 P11 fragment]”: in series [1], the binding result is listed as “binds”. Take “GCCCATATATAGTATCTTCCGCTGTTGTATATCTTGAGCAGCTTGAGGAAGCCTTTGCAAAAAAATAGAGTGAATTTTGAGTACAGTATGAATATCATTCAACAACATTTTCCATCCAAGCGACTTAGAAAATAAAATTTTGTCAGCTACCTTAAACTGTGTTTACGTCCTAAAAATTTGCACCAA (double strand) [CalS5 P11 unlabeled competitor]”: in series [2], the binding result is reported as “binds”.
